According to paper PMC5778602:

Biological target: T1, CstF-50 (full length, affinity tag removed) (human), Q05048
T1 chain: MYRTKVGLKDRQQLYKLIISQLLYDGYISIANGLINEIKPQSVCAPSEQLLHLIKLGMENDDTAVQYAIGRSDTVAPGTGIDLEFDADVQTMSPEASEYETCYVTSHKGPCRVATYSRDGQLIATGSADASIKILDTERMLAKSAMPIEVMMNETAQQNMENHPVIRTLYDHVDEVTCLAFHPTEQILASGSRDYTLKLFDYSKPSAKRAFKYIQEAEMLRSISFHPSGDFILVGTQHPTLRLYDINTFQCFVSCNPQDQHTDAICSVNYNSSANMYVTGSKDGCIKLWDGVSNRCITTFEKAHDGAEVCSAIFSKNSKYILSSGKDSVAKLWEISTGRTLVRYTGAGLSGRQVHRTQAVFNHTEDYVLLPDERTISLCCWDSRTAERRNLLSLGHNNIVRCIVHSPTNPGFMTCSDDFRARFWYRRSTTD
Test: SEC-MALS
Details: remark: other sources report otherwise

- stoichiometry N: 2
B1: CstF-50 (full length, affinity tag removed), Q05048 1-431 (natural protein)
chain: MYRTKVGLKDRQQLYKLIISQLLYDGYISIANGLINEIKPQSVCAPSEQLLHLIKLGMENDDTAVQYAIGRSDTVAPGTGIDLEFDADVQTMSPEASEYETCYVTSHKGPCRVATYSRDGQLIATGSADASIKILDTERMLAKSAMPIEVMMNETAQQNMENHPVIRTLYDHVDEVTCLAFHPTEQILASGSRDYTLKLFDYSKPSAKRAFKYIQEAEMLRSISFHPSGDFILVGTQHPTLRLYDINTFQCFVSCNPQDQHTDAICSVNYNSSANMYVTGSKDGCIKLWDGVSNRCITTFEKAHDGAEVCSAIFSKNSKYILSSGKDSVAKLWEISTGRTLVRYTGAGLSGRQVHRTQAVFNHTEDYVLLPDERTISLCCWDSRTAERRNLLSLGHNNIVRCIVHSPTNPGFMTCSDDFRARFWYRRSTTD
